{"source": "paper PMC5810440", "about": "“The Origins of Specificity in the Microcin-Processing Protease TldD/E” (Structure(London, England:1993), 2017)", "molecules": {"B1": {"name": "untagged E. coli TldE co-expressed with His-tagged TldD (pColA-Duet, MCS II) (natural protein, UniProt P0AFK0 1-450, looked up)", "chain": "MALAMKVISQVEAQRKILEEAVSTALELASGKSDGAEVAVSKTTGISVSTRYGEVENVEFNSDGALGITVYHQNRKGSASSTDLSPQAIARTVQAALDIARYTSPDPCAGVADKELLAFDAPDLDLFHPAEVSPDEAIELAARAEQAALQADKRITNTEGGSFNSHYGVKVFGNSHGMLQGYCSTRHSLSSCVIAEENGDMERDYAYTIGRAMSDLQTPEWVGADCARRTLSRLSPRKLSTMKAPVIFANEVATGLFGHLVGAIAGGSVYRKSTFLLDSLGKQILPDWLTIEEHPHLLKGLASTPFDSEGVRTERRDIIKDGILTQWLLTSYSARKLGLKSTGHAGGIHNWRIAGQGLSFEQMLKEMGTGLVVTELMGQGVSAITGDYSRGAAGFWVENGEIQYPVSEITIAGNLKDMWRNIVTVGNDIETRSNIQCGSVLLPEMKIAGQ", "notes": "TldE (PmbA) of E. coli MG1655, cloned into the second MCS of pColA-Duet (NdeI/XhoI), untagged; residues 6-450 seen in the crystals; also called PmbA; TldE subunit; source: E. coli BL21 (DE3) Gold, co-overproduced with His-tagged TldD"}, "B2": {"name": "N-terminally 6xHis-tagged E. coli TldE (pET28b, purified separately) (natural protein, UniProt P0AFK0 1-450, looked up)", "chain": "B1 chain", "notes": "50.5 kDa with the tag; also called His-TldE; PmbA; source: E. coli BL21 (DE3) Gold, purified (Ni-NTA)"}}, "key": {"[1]": {"target": "N-terminally 6xHis-tagged E. coli TldD (pET28b, purified separately) (E. coli) (UniProt P0AGG8)", "assay": "AUC; sedimentation equilibrium, 0.2 mg/ml protein in 50 mM Tris-HCl pH 7.5, 100 mM NaCl, 10000 rpm, 20 C, single species model"}, "[2]": {"target": "T1, TldD/E (purified TldD and TldE combined) (Escherichia coli, UniProt P0AGG8)", "T1 construct": "with Metalloprotease PmbA", "T1 sequence (P0AGG8 1-481)": "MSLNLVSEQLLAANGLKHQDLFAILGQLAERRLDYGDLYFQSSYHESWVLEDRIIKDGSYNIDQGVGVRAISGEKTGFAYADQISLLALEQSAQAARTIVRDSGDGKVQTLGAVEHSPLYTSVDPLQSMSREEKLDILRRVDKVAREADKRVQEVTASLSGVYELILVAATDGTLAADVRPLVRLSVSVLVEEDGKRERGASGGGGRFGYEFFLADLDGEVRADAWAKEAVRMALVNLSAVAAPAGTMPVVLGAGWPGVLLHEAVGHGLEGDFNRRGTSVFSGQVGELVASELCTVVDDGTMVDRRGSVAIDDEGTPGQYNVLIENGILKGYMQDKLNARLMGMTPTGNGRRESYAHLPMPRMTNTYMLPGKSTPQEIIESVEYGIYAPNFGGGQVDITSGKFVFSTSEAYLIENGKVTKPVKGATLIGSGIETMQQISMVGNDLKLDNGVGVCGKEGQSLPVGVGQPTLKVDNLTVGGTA", "T1 sequence (P0AFK0 1-450 partner)": "B1 chain", "assay": "inhibition of angiotensin II hydrolysis", "assay_type": "biochemical", "details": "substrate angiotensin II"}, "[3]": {"target": "T2, E. coli TldD His262Ala mutant (subunit of the TldD^H262A/E complex) (E. coli, UniProt P0AGG8 1-481, H262A | Gly to Asp at position 401)", "T2 construct": "TldD of E. coli MG1655 with H262A; Gly401 to Asp was introduced into all the models; source: E. coli, mutant protein complex with TldE", "T2 sequence (looked up)": "T1 sequence (P0AGG8 1-481) with H262A, G401D", "assay": "crystal structure; X-ray structures of the co-purified TldD/E heterodimer (wild type and TldD mutants), two heterodimers in the asymmetric unit; condition 1 (phosphate, PEG 3350) or condition 2 (PEG 1500, MMT pH 8.0), 20 C", "details": "both partners purified"}, "[4]": {"target": "T3, E. coli TldD Glu263Ala mutant (subunit of the TldD^E263A/E complex) (E. coli, UniProt P0AGG8 1-481, E263A | Gly to Asp at position 401)", "T3 construct": "TldD of E. coli MG1655 with E263A; Gly401 to Asp was introduced into all the models; The methods say only that the mutants were made by overlap extension PCR and 'cloned and produced as described above'; also called Glu263Ala TldD mutant; source: E. coli, mutant protein complex with TldE", "T3 sequence (looked up)": "T1 sequence (P0AGG8 1-481) with E263A, G401D", "assay": "crystal structure; X-ray structures of the co-purified TldD/E heterodimer (wild type and TldD mutants), two heterodimers in the asymmetric unit; condition 1 (phosphate, PEG 3350) or condition 2 (PEG 1500, MMT pH 8.0), 20 C", "details": "both partners purified"}, "[5]": {"target": "T4, His-tagged E. coli TldD co-expressed with untagged TldE (pColA-Duet, MCS I) (E. coli, UniProt P0AGG8 1-481, Gly to Asp at position 401)", "T4 construct": "TldD of E. coli MG1655, cloned into MCS I of pColA-Duet (BamHI/HindIII); residues 2-481 seen in the crystals; Zn in the active site (grown with 50 uM ZnCl2 for crystals); also called TldD-His; His-tagged TldD; source: E. coli BL21 (DE3) Gold, co-overproduced with TldE", "T4 sequence (looked up)": "T1 sequence (P0AGG8 1-481) with G401D", "assay": "pull-down; Ni affinity chromatography of extracts of E. coli co-overproducing His-tagged TldD and untagged TldE; wash ~20 CV with 1 M NaCl, 50 mM imidazole, 0.1% Triton X-100; elution with 250 mM imidazole", "details": "partners not purified"}, "[6]": {"target": "the molecule itself", "assay": "AUC; sedimentation equilibrium, 0.2 mg/ml protein in 50 mM Tris-HCl pH 7.5, 100 mM NaCl, 10000 rpm, 20 C, single species model"}}, "note": "Changes are numbered by the printed parent chain."}
{"molecule": "N-terminally 6xHis-tagged E. coli TldD (pET28b, purified separately) (from UniProt P0AGG8 1-481) (natural protein)", "values": [{"measurement": "stoichiometry N", "setting": "[1]", "value": 2}]}
{"molecule": "CCCCC[C@H](CC(=O)NO)C(=O)N[C@H](C(=O)N1CCC[C@H]1CO)C(C)C", "note": "[Actinonin]", "values": [{"measurement": "inhibition of angiotensin II hydrolysis", "setting": "[2]", "value": "actinonin (deformylase inhibitor) efficiently prevented angiotensin II hydrolysis by TldD/E"}]}
{"molecule": "B1", "values": [{"measurement": "binding result", "setting": "[3]", "value": "binds"}, {"measurement": "binding result", "setting": "[4]", "value": "binds"}, {"measurement": "binding result", "setting": "[5]", "value": "binds"}]}
{"molecule": "B2", "values": [{"measurement": "stoichiometry N", "setting": "[6]", "value": 2}]}
